{
  "source": "paper PMC4784909",
  "about": "“The Structural Basis of Coenzyme A Recycling in a Bacterial Organelle” (PLoS Biology, 2016)",
  "key": {"rPduLΔEP [1]": {"biological_target": "T1, rPduLΔEP (Rhodopseudomonas palustris, UniProt Q21A54)", "test": "X-ray crystal structure, […] Å", "type": "binding", "design": "gene pduL; C-terminal 6xHis, codon optimized, E. coli BL21(DE3); dimer; contains 2 Zn", "conditions": "CoA co-purified from E. coli; sulfur coordinates Zn1 of di-zinc active site"}, "rPduLΔEP [2]": {"biological_target": "T1, rPduLΔEP", "design": "gene pduL", "conditions": "crystals soaked 2 d in sodium phosphate pH 7.0; bridges both Zn in active site, CoA dissociated"}, "[3]": {"biological_target": "pPduL, full length (PduL from the pvm locus of Planctomyces limnophilus) (Planctomyces limnophilus)", "test": "SEC; post-nickel affinity protein on HiLoad 26/60 Superdex 200 preparative column, pooled fractions (1-20 mg/mL) on Superdex 200 10/300 GL analytical column; 20 mM Tris pH 7.4, 50 mM NaCl"}, "[4]": {"biological_target": "pPduL, full length (PduL from the pvm locus of Planctomyces limnophilus) (Planctomyces limnophilus)", "test": "SEC; post-nickel affinity protein on HiLoad 26/60 Superdex 200 preparative column, pooled fractions (1-20 mg/mL) on Superdex 200 10/300 GL analytical column; 20 mM Tris pH 7.4, 50 mM NaCl", "remark": "listed apart in the source"}, "[5]": {"biological_target": "the molecule itself", "test": "SEC-MALS; Superdex S200 10/300 GL, 1 mg/ml protein injected, 0.5 ml/min, 20 mM Tris, 50 mM NaCl, pH 7.4"}, "[6]": {"biological_target": "the molecule itself", "test": "SEC; post-nickel affinity protein on HiLoad 26/60 Superdex 200 preparative column, pooled fractions (1-20 mg/mL) on Superdex 200 10/300 GL analytical column; 20 mM Tris pH 7.4, 50 mM NaCl"}},
  "note": "Like-named read-outs stand apart in the source and are kept apart here.",
  "data": [
    {"molecule": "CC(C)(COP(=O)(O)OP(=O)(O)OC[C@H]1O[C@@H](n2cnc3c(N)ncnc32)[C@H](O)[C@@H]1OP(=O)(O)O)[C@@H](O)C(=O)NCCC(=O)NCCS", "note": "[Coenzyme A]", "values": [
      {"measurement": "X-ray crystal structure, 1.54 Å", "setting": "rPduLΔEP [1]", "value": "tetrahedral coordination state with His48, His50, Glu109, and the CoA sulfur"}
    ]},
    {"molecule": "O=P(O)(O)O", "note": "[phosphate]", "values": [
      {"measurement": "X-ray crystal structure, phosphate soak, 2.10 Å", "setting": "rPduLΔEP [2]", "value": "the CoA dissociates, and density for a phosphate molecule is visible at the active site"}
    ]},
    {"molecule": "pPduL, full length (PduL from the pvm locus of Planctomyces limnophilus) (enzyme)", "values": [
      {"measurement": "stoichiometry N", "setting": "[3]", "value": 2},
      {"measurement": "stoichiometry N", "setting": "[4]", "value": 6}
    ]},
    {"molecule": "rPduL, full length (PduL from the grm3 locus of Rhodopseudomonas palustris BisB18) (enzyme, UniProt Q21A54 1-226, looked up, PduL phosphotransacylase, grm3 locus, Rhodopseudomonas palustris BisB18, with its N-terminal encapsulation peptide; Two oligomeric states by SEC (about a dimer and a higher oligomer); six subunits by SEC-MALS; also called rPduL hexamer; wildtype construct; source: E. coli BL21(DE3), purified (HisTrap, Superdex 200)) MDMQQETIERIIRQVLGQVGPAGGSIATLSGDAGVDPFQVAVGVSNRHIHLSRTDMDTLFGPGAELQRKKAMKQPGQFAAEETVTLKGPKGSLSKVRVLGPLRRETQVEVSVADGFALGITPPLRQSGQLDDTPGLTIIGPQGSVTKDHGVIVAQRHIHMHPSTAAKLGLRNGDEVDVEAGGERGGVMHRVLIRVAEASADEMHIDVEEANALCLKNDDVVRICKK", "values": [
      {"measurement": "stoichiometry N", "setting": "[5]", "value": 6},
      {"measurement": "stoichiometry N", "setting": "[6]", "value": "~2"}
    ]},
    {"molecule": "rPduLΔEP (PduL from the grm3 locus of Rhodopseudomonas palustris BisB18, N-terminal putative encapsulation peptide removed) (enzyme, UniProt Q21A54 34-226, looked up, PduL phosphotransacylase, grm3 locus, Rhodopseudomonas palustris BisB18; N-terminal putative EP (33 amino acids) removed; the crystallized construct begins with M-G-V; The construct begins with M-G-V; Gene codon optimized and synthesized with the 6xHis tag; no tag cleavage step is described; Crystals hold CoA (or phosphate) and two zinc ions per chain; also called truncated rPduL; Pdul-His; …) GVDPFQVAVGVSNRHIHLSRTDMDTLFGPGAELQRKKAMKQPGQFAAEETVTLKGPKGSLSKVRVLGPLRRETQVEVSVADGFALGITPPLRQSGQLDDTPGLTIIGPQGSVTKDHGVIVAQRHIHMHPSTAAKLGLRNGDEVDVEAGGERGGVMHRVLIRVAEASADEMHIDVEEANALCLKNDDVVRICKK", "values": [
      {"measurement": "stoichiometry N", "setting": "[6]", "value": 2}
    ]}
  ]
}
